Experimental data reported in article PMC5877976.

Legend:
Test in all cases: SPR
[1] = target: chronic gp120 with its wild-type chronic SP (HIV-1 (subtype B))
[2] = target: chronic gp120 with the early-replicating SP (HIV-1 (subtype B))
[3] = target: early-replicating gp120 with its wild-type SP (HIV-1 (subtype B))
[4] = target: early-replicating gp120 with the chronic SP (HIV-1 (subtype B))

tetrameric recombinant soluble DC-SIGN (from UniProt Q9NNX6 1-404) (receptor)
peak response units (RU) [1]: 184 RU | peak response units (RU) [2]: 308 RU | peak response units (RU) [3]: 208 RU | peak response units (RU) [4]: 131 RU
